Measured values published in publication PMC7991746, “Nucleophosmin Protein Dephosphorylation by DUSP3 Is a Fine-Tuning Regulator of p53 Signaling to Maintain Genomic Stability” (Frontiers in Cell and Developmental Biology, 2021).
Positions count from the first letter of the chain named. Numbers in names are those of the source. Non-standard residues stand in square brackets, D forms with d. No end group written: not given here. pY = N[C@@H](Cc1ccc(OP(=O)(O)O)cc1)C(=O)O

B1: phospho-Y-decapeptide p-NPM(Y271) (peptide)
peptide: EAKFIN[pY]VKN
notes: Stretch of nucleophosmin around Y271; source: synthetic peptide, bought: Chinese Peptide Company
B2: phospho-Y-decapeptide p-NPM(Y67) (peptide)
peptide: AMN[pY]EGSPIK
notes: Stretch of nucleophosmin around Y67; source: synthetic peptide, bought: Chinese Peptide Company
B3: phospho-Y-decapeptide p-NPM(Y17) (peptide)
peptide: SPLRPQN[pY]L
notes: Stretch of nucleophosmin around Y17; source: synthetic peptide, bought: Chinese Peptide Company
B4: phospho-Y-decapeptide p-NPM(Y29) (peptide)
peptide: ADKD[pY]HFKVD
notes: Stretch of nucleophosmin around Y29; source: synthetic peptide, bought: Chinese Peptide Company
B5: DUSP3-WT (dual-specificity phosphatase 3) (enzyme, UniProt P51452 1-185, looked up)
chain: MSGSFELSVQDLNDLLSDGSGCYSLPSQPCNEVTPRIYVGNASVAQDIPKLQKLGITHVLNAAEGRSFMHVNTNANFYKDSGITYLGIKANDTQEFNLSAYFERAADFIDQALAQKNGRVLVHCREGYSRSPTLVIAYLMMRQKMDVKSALSIVRQNREIGPNDGFLAQLCQLNDRLAKEGKLKP
notes: DUSP3 (VHR), wild type, cDNA in pGEX-4T2 (Torres et al., 2017); Immobilised on a CM5 sensorchip; also called VHR; vaccinia virus H1-related phosphatase; source: E. coli BL-21 (DE3), purified (Glutathione-Sepharose 4B; GST removed by thrombin)
B6: DUSP3-C124S mutant (phosphatase dead) (enzyme, UniProt P51452 1-185, looked up)
chain: B5 chain with C124S
notes: DUSP3 (VHR) with the catalytic cysteine 124 substituted by serine, cDNA in pGEX-4T2 (Torres et al., 2017); Immobilised on a CM5 sensorchip; source: E. coli BL-21 (DE3), purified (Glutathione-Sepharose 4B; GST removed by thrombin)

Molecular target: B5
Assay: SPR; Biacore T100; DUSP3-WT immobilised on CM5 sensorchip (3,000 RU); peptides 5-40 μM in HBS-N buffer; 25°C, 120 s association, 300 s dissociation, 10 μl/min; three independent experiments
Conditions: both partners purified

**Q.** B1 was tested. Which Kd did it give?
**A.** The Kd was 2070 nM.

**Q.** With B2 as the binder, how does the Kd read?
**A.** Its Kd is 2010 nM.

**Q.** Which Kd does the source give for B3 here?
**A.** The Kd was 1620 nM.

**Q.** With B4 as the binder, how does the Kd read?
**A.** Its Kd is 2340 nM.

Molecular target: T1, ERK1 (UniProt P27361 1-379)
T1 construct: ERK1, cDNA in pGEX-4T2 donated by Prof; Rony Seger; The sentence on purification and on removal of GST names DUSP3 and NPM full length but not ERK1; source: E. coli BL-21 (DE3), purified recombinant protein
T1 sequence (P27361 whole entry): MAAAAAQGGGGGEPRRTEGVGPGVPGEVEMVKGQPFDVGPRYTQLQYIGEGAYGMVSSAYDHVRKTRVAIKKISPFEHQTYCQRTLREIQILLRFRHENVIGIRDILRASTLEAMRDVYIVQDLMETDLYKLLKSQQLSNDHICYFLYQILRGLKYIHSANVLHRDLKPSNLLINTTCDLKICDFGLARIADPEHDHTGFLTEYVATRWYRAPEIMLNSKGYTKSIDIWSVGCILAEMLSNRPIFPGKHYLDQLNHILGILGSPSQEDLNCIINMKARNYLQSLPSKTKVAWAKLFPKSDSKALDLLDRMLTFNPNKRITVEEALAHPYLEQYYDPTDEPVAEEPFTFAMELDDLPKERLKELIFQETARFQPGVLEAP
Assay: SPR; Biacore T100; DUSP3-WT or DUSP3-C124S immobilised on CM5 sensorchip (200 RU); protein analytes 12.5-1,000 nM; kinetic assays at 25°C, HBS-EP buffer, 10 μl/min, 120 s association, 300 s dissociation; three independent experiments
Conditions: both partners purified

**Q.** B5 was tested. Which Kd did it give?
**A.** The Kd was 178 nM.

**Q.** B6 was tested. Which Kd did it give?
**A.** The Kd was 130 nM.
